In this data set the test system is ATP. In words: switch fluorescence ratio, 500 uM ATP over buffer (Cy3 cluster intensity, sum of 5 cycles each) (fold (ratio)); higher = stronger signal-on switching upon ATP binding; sequences stand for … in TCGTCGGCAGCGTCAGATGTGTATAAGAGACAGTTTTTTTTTTTTTTTTTTTTTTTTT…TC. Particulars: aptamer strand: ATP DNA aptamer (quencher-CACCTGGGGGAGTATTGCGGAGGAAGG + anchor), 100 nM annealed; ATP concentration: 500 uM. Summed up:
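The fluorescence ratio divides summed target-cycle Cy3 intensity by summed buffer-cycle Cy3 intensity for each cluster and is averaged per switch-domain sequence. Cy3-labelled switching-strand clusters on a modified Illumina MiSeq flow-cell were annealed to 100 nM quencher-labelled ATP aptamer, then imaged in selection buffer and again after 15 min with 500 uM ATP at 22 °C. Five such cycles were run, with NaOH stripping and re-annealing between them, and clusters outside 100-1000 RFU were excluded.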

± gives the standard deviation of the averaged measurements.

This note sets out measurements from the supplement of paper PMC10126150.
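Also: ATP exposure 15 min at 22 °C before imaging.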

Regarding GAGCCAGGCA, the switch fluorescence ratio was determined as 0.974 ± 0.042. Next, GAGCCCGCAG: 1.6 ± 0.038; GAGCCCTTAT: 0.9812 ± 0.0078. The figure for GAGCCTTATG is 0.994 ± 0.033. Next, GAGCGAATAG: 1.46 ± 0.055; GAGCGGGTAC: 1.41 ± 0.03. Turning to GAGCGGGTTG, the switch fluorescence ratio stood at 0.9835 ± 0.0056. Turning to GAGCGTAAGT, the switch fluorescence ratio was determined as 0.958 ± 0.03. The figure for GAGCTAACGG is 1.011 ± 0.0073; for GAGCTAAGCT it is 0.981 ± 0.018; for GAGCTAAGGA it is 0.981 ± 0.029. The figure for GAGCTGGAGG is 1 ± 0.017. Turning to GAGCTTCTAG, the switch fluorescence ratio was determined as 1.03 ± 0.015. As to GAGCTTGCTG, the switch fluorescence ratio turned out to be 0.9992 ± 0.0083. Next, GAGGAACCGG: 1.05 ± 0.021. Turning to GAGGAAGGGG, the switch fluorescence ratio came out at 1 ± 0.016.

Regarding GAGGAATCGA, the switch fluorescence ratio worked out at 1.04 ± 0.065. Regarding GAGGAATTTA, the switch fluorescence ratio turned out to be 1.02 ± 0.028. Consider GAGGAGCGTT, for which the switch fluorescence ratio was determined as 0.9804 ± 0.007.

In the case of GAGGAGGATG, the switch fluorescence ratio came out at 0.987 ± 0.013.

Consider GAGGAGGGAC, for which the switch fluorescence ratio worked out at 0.989 ± 0.05. Next, GAGGAGGGTA: 0.966 ± 0.086; GAGGAGTAGG: 1.08 ± 0.036. For the sequence GAGGAGTGGT, the switch fluorescence ratio worked out at 0.984 ± 0.015. With GAGGATTTAA, the switch fluorescence ratio was 1 ± 0.03. Next, GAGGCAAGG: 1.341 ± 0.0038; GAGGCAGTTA: 1.11 ± 0.046; GAGGCATTGC: 1.65 ± 0.24.

Consider GAGGCCCATT, for which the switch fluorescence ratio is 1 ± 0.043. In the case of GAGGCCGATT, the switch fluorescence ratio stood at 1.02 ± 0.011. For GAGGCGACGT, the switch fluorescence ratio was found to be 0.963 ± 0.027.

In the case of GAGGCGGAGG, the switch fluorescence ratio stood at 1 ± 0.028. The figure for GAGGCGGCAT is 1.04 ± 0.0066. The figure for GAGGCGGCGG is 1.067 ± 0.0051. Turning to GAGGCGGTGG, the switch fluorescence ratio was 1.009 ± 0.005. The figure for GAGGCTGGGA is 0.988 ± 0.032. Next, GAGGCTGGGC: 0.973 ± 0.053; GAGGCTTCTA: 1.02 ± 0.036; GAGGGAAGAG: 1.01 ± 0.021. As for GAGGGAAGGG, the switch fluorescence ratio was determined as 0.994 ± 0.011. The figure for GAGGGAGGGA is 1.03 ± 0.059; for GAGGGAGTCG it is 1.01 ± 0.022. Take GAGGGAGTTT: the switch fluorescence ratio was determined as 0.987 ± 0.025. Next, GAGGGCGCTG: 0.973 ± 0.011; GAGGGCTAGG: 0.997 ± 0.023. For GAGGGCTTGG, the switch fluorescence ratio was 1.05 ± 0.016. Next, GAGGGGAACC: 0.992 ± 0.032; GAGGGGAGCG: 0.969 ± 0.043. The figure for GAGGGGATAG is 1.03 ± 0.046; for GAGGGGATGT it is 0.978 ± 0.026; for GAGGGGCCGA it is 0.973 ± 0.016. In the case of GAGGGGCGCG, the switch fluorescence ratio stood at 0.997 ± 0.065.

With GAGGGGCTTT, the switch fluorescence ratio was 0.982 ± 0.018. The figure for GAGGGGGCAC is 1.03 ± 0.042.

For the sequence GAGGGGGCGC, the switch fluorescence ratio was 1.02 ± 0.031. For the sequence GAGGGGGCGG, the switch fluorescence ratio was found to be 0.999 ± 0.025. The figure for GAGGGGGCGT is 1.01 ± 0.04; for GAGGGGGCTA it is 1.02 ± 0.029. The figure for GAGGGGGGAC is 1.02 ± 0.032; for GAGGGGGGCA it is 0.977 ± 0.03.

In the case of GAGGGGGGGC, the switch fluorescence ratio was 1.01 ± 0.07. On to GAGGGGTCCA, for which the switch fluorescence ratio is 0.974 ± 0.021. As to GAGGGGTGCG, the switch fluorescence ratio came out at 1.01 ± 0.025. As to GAGGGGTTGG, the switch fluorescence ratio worked out at 0.964 ± 0.033. The figure for GAGGGGTTGT is 1.03 ± 0.013. Regarding GAGGGTACGG, the switch fluorescence ratio stood at 1.037 ± 0.0092.
